Kd data for one molecule are collected here from paper doi:10.1101/2023.01.12.523719 (2023).

The target of the assay is T1, Myc-tagged NLRP6 (ΔPYD).
T1 chain: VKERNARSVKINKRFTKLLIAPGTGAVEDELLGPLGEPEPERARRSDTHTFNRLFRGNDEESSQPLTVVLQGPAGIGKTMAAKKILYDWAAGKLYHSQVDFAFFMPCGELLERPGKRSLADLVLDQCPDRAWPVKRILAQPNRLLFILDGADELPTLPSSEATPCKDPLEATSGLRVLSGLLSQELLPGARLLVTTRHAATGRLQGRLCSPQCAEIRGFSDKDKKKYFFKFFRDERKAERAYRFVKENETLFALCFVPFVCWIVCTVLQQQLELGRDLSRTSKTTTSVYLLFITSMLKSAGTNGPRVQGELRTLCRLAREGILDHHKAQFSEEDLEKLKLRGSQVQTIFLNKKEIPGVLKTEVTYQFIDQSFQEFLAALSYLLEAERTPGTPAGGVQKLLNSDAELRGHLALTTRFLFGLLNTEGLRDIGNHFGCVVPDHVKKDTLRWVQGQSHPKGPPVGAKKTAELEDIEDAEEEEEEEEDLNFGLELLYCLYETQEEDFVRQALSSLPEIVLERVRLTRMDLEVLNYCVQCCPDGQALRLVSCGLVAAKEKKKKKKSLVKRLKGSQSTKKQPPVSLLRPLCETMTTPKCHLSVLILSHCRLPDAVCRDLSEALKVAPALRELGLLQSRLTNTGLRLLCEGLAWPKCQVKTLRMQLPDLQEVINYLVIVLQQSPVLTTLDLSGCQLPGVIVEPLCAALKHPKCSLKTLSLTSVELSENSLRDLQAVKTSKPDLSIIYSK

B1: FLAG-tagged iTie (natural protein)
chain: MGVFQILMKNKELIPLAFFISVAATGATSFALYALKKTDVVIDRKRNPEPWEMVDPTQPQKLITINQQWKPVEELQKVRRATR
Broadly, the Kd is a measure of binding affinity in units of concentration. Read a high Kd as weaker binding. As for B1, the Kd was 88 nM.
